Patent publication US20220073620A1 (CHANGCHUN GENESCIENCE PHARMACEUTICAL, published 2022)

T1: human VEGF-A-His (human, UniProt P15692 207-395)
T1 construct: also called hVEGF-A
T1 sequence: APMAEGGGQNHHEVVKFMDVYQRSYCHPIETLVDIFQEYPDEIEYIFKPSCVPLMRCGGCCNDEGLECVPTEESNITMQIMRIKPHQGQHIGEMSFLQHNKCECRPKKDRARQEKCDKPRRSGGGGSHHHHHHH

B1: anti-human PD-L1 humanized monoclonal antibody 047 Ab-6 (antibody, V domains shown)
VH: EVQLVESGGGLVQPGGSLRLSCAASYFPFSDSWIHWVRQAPGKGLEWVAWISPYGGSSYYADSVQDRFTISADTSKNTAYLQMNSLRAEDTAVYYCAKRHWPGGFDHWGQGTLVTVSS
VL: DIQMTQSPSSLSASVGDRVTITCSASQDVTTAVAWYQQKPGKAPKLLIYSASFPYRGVPSRFSGSGSGTDFTLTISSLQPEDFATYYCQQYMYHPSTFGQGTKVEIK
B2: Eylea positive fusion protein (Fc fusion, not shown: a dimerising Fc or GST)
chain: SDTGRPFVEMYSEIPEIIHMTEGRELVIPCRVTSPNITVTLKKFPLDTLIPDGKRIIWDSRKGFIISNATYKEIGLLTCEATVNGHLYKTNYLTHRQTNTIIDVVLSPSHGIELSVGEKLVLNCTARTELNVGIDFNWEYPSSKHQHKKLVNRDLKTQSGSEMKKFLSTLTIDGVTRSDQGLYTCAASSGLMTKKNSTFVRVHEK
notes: also called control molecule Eylea

Key:
[1] = target: PDL1 on the surface of CHO-PDL1-CD3L cells (UniProt Q9NZQ7 19-290, limits assumed); experiment: cell-based or functional assay
PDL1 on the surface of CHO-PDL1-CD3L cells, sequence (Q9NZQ7 19-290 limits assumed): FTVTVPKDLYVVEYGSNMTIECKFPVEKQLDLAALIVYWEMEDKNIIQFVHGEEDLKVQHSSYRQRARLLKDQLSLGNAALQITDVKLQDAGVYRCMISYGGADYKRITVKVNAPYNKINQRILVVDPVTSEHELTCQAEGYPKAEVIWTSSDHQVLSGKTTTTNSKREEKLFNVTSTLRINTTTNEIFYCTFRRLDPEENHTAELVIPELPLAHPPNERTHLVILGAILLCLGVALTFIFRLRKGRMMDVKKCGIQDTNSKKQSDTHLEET

Human PD-L1-His = target: T2, Human PD-L1-His (human, UniProt Q9NZQ7 19-238); experiment: bridging ELISA, hPDL1-His and hVEGF121b-mFc as the two antigens; control diluted from 10 ug/ml
T2 construct: also called hPD-L1
T2 sequence (Q9NZQ7 19-238 limits assumed): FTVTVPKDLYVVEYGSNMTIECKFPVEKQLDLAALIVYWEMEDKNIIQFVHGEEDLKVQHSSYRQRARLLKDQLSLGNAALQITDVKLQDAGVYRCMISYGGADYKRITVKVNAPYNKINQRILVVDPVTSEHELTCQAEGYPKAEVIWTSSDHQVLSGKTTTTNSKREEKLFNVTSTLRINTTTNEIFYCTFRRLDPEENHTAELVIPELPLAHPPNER

VEGFA protein = VEGFA protein (UniProt P15692-4 27-191, limits assumed); experiment: cell-based or functional assay
human VEGF-A-His = target: T1, human VEGF-A-His; experiment: SPR (Biacore T200), human VEGF-A-His coupled to the chip, fusion protein flowed over
Description: The affinities of FabT and FTF were detected by Biacore T200 instrument. The specific protocols were as follows. Human PD-L1-His (constructed by GeneScience, SEQ ID NO: 11) and human VEGF-A-His (constructed by GeneScience, SEQ ID NO: 13) were coupled to CMS biosensor chip (GE), and then the antibodies of different concentrations were flowed through the chip at a flow rate of 30 μL/min. The binding between the candidate antibody and antigen was performed with a binding time of 120 s and a dissociation time of 300 s. The kinetic fitting was performed using BIAevalution software (GE), and the results of affinity constants were obtained as shown in Table 6 and Table 7.

| Binder | EC50, luciferase reporter in Jurkat-PD1-NFAT cells co-cultured with CHO-PDL1-CD3L cells [1] | binding result (Human PD-L1-His) | IC50, luciferase reporter in NFAT-RE-Luc2P-KDR-HEK293 cells stimulated with 50 ng/ml VEGFA (VEGFA protein) | Kd (human VEGF-A-His) | koff (human VEGF-A-His) | kon (human VEGF-A-His) |
| --- | --- | --- | --- | --- | --- | --- |
| B1 | 3.55 nM |  |  |  |  |  |
| B2 |  | no binding (tested: 10 ug/ml) | 0.75 nM | 1.51 nM | 0.000932 s⁻¹ | 617000 M⁻¹ s⁻¹ |
